Assay results taken from patent US20220242962A1 (APTEVO RESEARCH AND DEVELOPMENT, published 2022).

T1: Full-length Human OX40 (human, UniProt P43489 29-277)
T1 sequence: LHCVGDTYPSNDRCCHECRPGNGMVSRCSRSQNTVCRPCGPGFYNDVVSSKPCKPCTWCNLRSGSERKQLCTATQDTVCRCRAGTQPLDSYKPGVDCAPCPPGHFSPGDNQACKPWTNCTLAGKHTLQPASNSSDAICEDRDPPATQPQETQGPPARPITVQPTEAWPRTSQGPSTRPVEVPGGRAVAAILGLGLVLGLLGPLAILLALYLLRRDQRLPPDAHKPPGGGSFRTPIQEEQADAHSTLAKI

T2: Human OX40 ECD-AFH (human)
T2 construct: ECD'; entry includes the C-terminal tags; also called OXF003; Human OX40 ECD-avi-flag-his
T2 chain: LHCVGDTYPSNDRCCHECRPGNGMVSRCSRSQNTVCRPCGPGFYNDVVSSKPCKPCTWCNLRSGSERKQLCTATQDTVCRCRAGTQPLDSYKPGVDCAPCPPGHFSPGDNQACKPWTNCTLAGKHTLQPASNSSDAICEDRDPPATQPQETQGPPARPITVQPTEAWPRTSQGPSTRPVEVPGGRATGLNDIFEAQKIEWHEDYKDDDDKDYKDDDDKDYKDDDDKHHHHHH

T3: Cyno OX40-AFH (cynomolgus monkey)
T3 construct: entry includes the tags; also called OXF005; cyno OX40 ECD
T3 chain: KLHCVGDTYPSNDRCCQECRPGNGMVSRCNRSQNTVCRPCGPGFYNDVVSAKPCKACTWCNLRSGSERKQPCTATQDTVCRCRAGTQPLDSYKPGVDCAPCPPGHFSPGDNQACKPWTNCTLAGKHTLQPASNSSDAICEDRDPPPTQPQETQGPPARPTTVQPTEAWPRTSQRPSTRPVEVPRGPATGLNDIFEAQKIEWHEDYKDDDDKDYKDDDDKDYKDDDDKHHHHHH

T4: Cyno 4-1BB ECD-AFH (cynomolgus monkey)
T4 construct: entry includes the tags; also called FOB004; Cyno CD137 ECD-avi-flag-his
T4 chain: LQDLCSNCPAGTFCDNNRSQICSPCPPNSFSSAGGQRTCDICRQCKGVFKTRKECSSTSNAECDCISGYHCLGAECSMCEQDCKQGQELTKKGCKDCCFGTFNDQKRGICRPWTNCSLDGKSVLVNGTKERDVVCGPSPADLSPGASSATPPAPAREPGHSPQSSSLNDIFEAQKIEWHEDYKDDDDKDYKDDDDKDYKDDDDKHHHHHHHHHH

T5: Full-length Cyno 4-1BB (cynomolgus monkey, UniProt Q07011 24-255 (human entry))
T5 construct: on Jurkat or CHO cells; also called FOB006; cynomolgus 4-1BB
T5 chain: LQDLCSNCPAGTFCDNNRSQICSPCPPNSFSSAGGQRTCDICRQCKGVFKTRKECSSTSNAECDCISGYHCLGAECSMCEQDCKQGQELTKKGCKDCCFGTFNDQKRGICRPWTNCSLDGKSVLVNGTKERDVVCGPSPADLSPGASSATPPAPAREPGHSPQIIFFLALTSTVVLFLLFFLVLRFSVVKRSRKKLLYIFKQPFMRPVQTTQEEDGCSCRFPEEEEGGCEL

T6: Full-length Cyno OX40 (cynomolgus monkey, UniProt P43489 29-277 (human entry))
T6 construct: on CHO-K1SV cells; also called OXF004; cynomolgus OX40
T6 chain: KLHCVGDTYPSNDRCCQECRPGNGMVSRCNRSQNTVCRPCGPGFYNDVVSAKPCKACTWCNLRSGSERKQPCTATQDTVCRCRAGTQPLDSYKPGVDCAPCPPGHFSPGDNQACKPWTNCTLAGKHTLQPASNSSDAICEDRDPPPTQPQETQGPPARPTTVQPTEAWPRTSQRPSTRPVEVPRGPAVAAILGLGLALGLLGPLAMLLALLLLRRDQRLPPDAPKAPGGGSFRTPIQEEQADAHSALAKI


Experiments:
Full-length Human OX40 = target: T1, Full-length Human OX40; assay: cell-based or functional assay
Full-length Human 4-1BB = Full-length Human 4-1BB (human, UniProt Q07011 24-255); assay: cell-based or functional assay
Human OX40 ECD-AFH = target: T2, Human OX40 ECD-AFH; assay: SPR (Biacore 8K), construct captured, monovalent ECD
Protocol: (§1) Mouse anti-human IgG (GE, BR-1008-39) at 25 μg/ml in 10 mM sodium acetate pH 5.0 was immobilized at a density of ˜10,000 response units (RU) onto each flow cell of a CM5 research-grade sensor chip (GE) by standard amine coupling chemistry. Each binding protein at approximately 100 nM in HBS-EP+ with 0.2% BSA buffer was captured in a flow cell with the immobilized anti-human IgG at a flow rate of 10 μL/min for 20 seconds, leaving one flow cell surface unmodified as the reference. Using a single-cycle kinetics mode, five different concentrations of ECD were sequentially injected through each flow cell at 30 μL/min for 300 seconds followed by a 600 second dissociation period. Regeneration was achieved by injection of 3 M MgCl₂ at a flow rate of 30 μL/min for 30 seconds followed by HBS-EP+ with 0.2% BSA buffer stabilization for 1 min.
(§2) Sensorgrams obtained from kinetic SPR measurements were analyzed by the double subtraction method. The signal from the reference flow cell was subtracted from the analyte binding response obtained from flow cells with immobilized or captured ligands. Buffer reference responses were then averaged from multiple injections. The averaged buffer reference responses were then subtracted from analyte binding responses, and the final double-referenced data were analyzed with Biacore T200 Evaluation software (2.0, GE), globally fitting data to derive kinetic parameters. All sensorgrams were fitted using a simple one-to-one binding model.
(§3) Using the BIACORE 8K SPR system, the affinity of these constructs for human and cyno 4-1BB, and human and cyno OX40 ECD, were determined using the methods described above. Monovalent binding affinity was determined by capturing the ADAPTIR™ bispecific construct on the chip and injecting monovalent ECD of the target at multiple concentrations.

Cyno OX40-AFH = target: T3, Cyno OX40-AFH; assay: as above
Protocol: as §1, §2, §3

Human 4-1BB ECD-AFH = target: T7, Human 4-1BB ECD-AFH (human); assay: as above
T7 construct: entry includes the tags; also called FOB003; HUMAN CD137 ECD-AVI-FLAG-HIS
Protocol: as §1, §2, §3

Cyno 4-1BB ECD-AFH = target: T4, Cyno 4-1BB ECD-AFH; assay: as above
Protocol: as §1, §2, §3

Full-length Cyno 4-1BB = target: T5, Full-length Cyno 4-1BB; assay: flow cytometry on Jurkat cells transfected with cynomolgus 4-1BB, goat anti-human Fc secondary antibody, MFI (Mean)
Protocol: (§4) Serial dilutions of ADAPTIR™ constructs were incubated with transfected target cells and subsequently labelled with a fluorescently-conjugated goat-a-human Fc secondary antibody. […] (See Example 25.)

Full-length Cyno OX40 = target: T6, Full-length Cyno OX40; assay: flow cytometry on CHOK1SV cells transfected with cynomolgus OX40, goat anti-human Fc secondary antibody, MFI (Mean)
Protocol: as §4

Row | OX40 Reporter Assay EC50 (Full-length Human OX40) | OX40 Reporter Assay Max induction (Full-length Human OX40) | 4-1BB Reporter Assay EC50 (Full-length Human 4-1BB) | 4-1BB Reporter Assay Max induction (Full-length Human 4-1BB) | Kd (Human OX40 ECD-AFH) | koff (Human OX40 ECD-AFH) | kon (Human OX40 ECD-AFH) | Kd (Cyno OX40-AFH) | koff (Cyno OX40-AFH) | kon (Cyno OX40-AFH) | Kd (Human 4-1BB ECD-AFH) | koff (Human 4-1BB ECD-AFH) | kon (Human 4-1BB ECD-AFH) | Kd (Cyno 4-1BB ECD-AFH) | koff (Cyno 4-1BB ECD-AFH) | kon (Cyno 4-1BB ECD-AFH) | EC50 (read off the curve) (Full-length Cyno 4-1BB) | EC50 (read off the curve) (Full-length Cyno OX40) | Binder
1 | 0.018 nM | 6.08e+06 | 0.018 nM | 1.43e+06 | < 1 nM | 0.00026 s⁻¹ | 1.1e+06 M⁻¹ s⁻¹ | < 1 nM | 0.00028 s⁻¹ | 1.1e+06 M⁻¹ s⁻¹ | 17 nM | 0.0045 s⁻¹ | 270000 M⁻¹ s⁻¹ | 116 nM | 0.0091 s⁻¹ | 79000 M⁻¹ s⁻¹ | ~0.3 nM | 1 to 2 nM | FXX01114 (bispecific antibody, ADAPTIR anti-4-1BB x anti-OX40, pI variant) EVQLVQSGAEVKKPGASVKVSCKASGYTFTSYWMNWVRQAPGQGLEWMGNIYPSGGSTNYAQKFQGRVTMTVDTSTSTVYMELSSLRSEDTAVYYCASFSDGYYAYAMDYWGQGTLVTVSSGGGGSGGGGSGGGGSGGGGSEIVMTQSPATLSLSPGERATLSCRASQSVSSYLNWYQQKPGQAPRLLIYYASRRHTGIPARFSGSGSGTDFTLTISSLQPEDFAVYYCQQGYNLPYTFGQGTKVEIKEPKSSDKTHTCPPCPAPPAAAPSVFLFPPKPKDTLMISRTPEVTCVVVDVSHEDPEVKFNWYVDGVEVHNAKTKPREEQYNSTYRVVSVLTVLHQDWLNGKEYKCAVSNKALPAPIEKTISKAKGQPREPQVYTLPPSRDELTKNQVSLTCLVKGFYPSDIAVEWESNGQPENNYKTTPPVLDSDGSFFLYSKLTVDKSRWQQGNVFSCSVMHEALHNHYTQKSLSLSPGGGGSPSSYVLTQPPSVSVAPGQTARITCGGNNIGSKSVNWFQQKPGQAPVLVVYDDSGRPSGIPARFSGSTSGNTATLTISRVEAGDEADYYCQVWDSSSDHVVFGGGTKLTVLGGGGSGGGGSGGGGSGGGGSQVQLVESGGGVVQPGRSLRLSCAASGFTLSYYGMHWVRQAPGKGLEWVAAISHDGSDKYYADSVKGRFTISRDNSKNRLYLQMNSLRAEDTAVYYCSNDQFDPWGQGTLVTVSSR
2 | 0.018 nM | 6.22e+06 | 0.02 nM | 1.41e+06 | < 1 nM | 0.0003 s⁻¹ | 970000 M⁻¹ s⁻¹ | < 1 nM | 0.0002 s⁻¹ | 1e+06 M⁻¹ s⁻¹ | 17 nM | 0.0042 s⁻¹ | 250000 M⁻¹ s⁻¹ | 76 nM | 0.0072 s⁻¹ | 96000 M⁻¹ s⁻¹ | ~0.3 nM | 1 to 2 nM | FXX01117 (bispecific antibody, ADAPTIR anti-4-1BB x anti-OX40, pI variant) EVQLVQSGAEVKKPGASVKVSCKASGYTFTSYWMNWVRQAPGQGLEWMGNIYPSGGSTNYAQKFQGRVTMTVDTSTSTVYMELSSLRSEDTAVYYCASFSDGYYAYAMDYWGQGTLVTVSSGGGGSGGGGSGGGGSGGGGSEIVMTQSPATLSLSPGERATLSCRASQSVSSYLNWYQQKPGQAPRLLIYYASRRHTGIPARFSGSGSGTDFTLTISSLQPEDFAVYYCQQGYNLPYTFGQGTKVEIKEPKSSDKTHTCPPCPAPPAAAPSVFLFPPKPKDTLMISRTPEVTCVVVDVSHEDPEVKFNWYVDGVEVHNAKTKPREEQYNSTYRVVSVLTVLHQDWLNGKEYKCAVSNKALPAPIEKTISKAKGQPREPQVYTLPPSRDELTKNQVSLTCLVKGFYPSDIAVEWESNGQPENNYKTTPPVLDSDGSFFLYSKLTVDKSRWQQGNVFSCSVMHEALHNHYTQKSLSLSPGGGGSPSSYVLTQPPSVSVAPGQTARITCGGNNIGSKSVNWFQQKPGQAPVLVVYDDSGRPSGIPKRFSGSTSGNTATLTISRVEAGDEADYYCQVWDSSSDHVVFGGGTKLTVLGGGGSGGGGSGGGGSGGGGSQVQLVESGGGVVQPGRSLRLSCAASGFTLSYYGMHWVRQAPGKGLEWVAAISHDGSDKYYADSVKGRFTISRDNSKNRLYLQMNSLRAEDTAVYYCSNDQFDPWGQGTLVTVSSR
3 | 0.017 nM | 5.95e+06 | 0.019 nM | 1.39e+06 | < 1 nM | 0.00044 s⁻¹ | 880000 M⁻¹ s⁻¹ | < 1 nM | 0.00027 s⁻¹ | 1e+06 M⁻¹ s⁻¹ | 17 nM | 0.0046 s⁻¹ | 270000 M⁻¹ s⁻¹ | 81 nM | 0.0079 s⁻¹ | 98000 M⁻¹ s⁻¹ | ~0.3 nM | 1 to 2 nM | FXX01116 (bispecific antibody, ADAPTIR anti-4-1BB x anti-OX40, pI variant) EVQLVQSGAEVKKPGASVKVSCKASGYTFTSYWMNWVRQAPGQGLEWMGNIYPSGGSTNYAQKFQGRVTMTVDTSTSTVYMELSSLRSEDTAVYYCASFSDGYYAYAMDYWGQGTLVTVSSGGGGSGGGGSGGGGSGGGGSEIVMTQSPATLSLSPGERATLSCRASQSVSSYLNWYQQKPGQAPRLLIYYASRRHTGIPARFSGSGSGTDFTLTISSLQPEDFAVYYCQQGYNLPYTFGQGTKVEIKEPKSSDKTHTCPPCPAPPAAAPSVFLFPPKPKDTLMISRTPEVTCVVVDVSHEDPEVKFNWYVDGVEVHNAKTKPREEQYNSTYRVVSVLTVLHQDWLNGKEYKCAVSNKALPAPIEKTISKAKGQPREPQVYTLPPSRDELTKNQVSLTCLVKGFYPSDIAVEWESNGQPENNYKTTPPVLDSDGSFFLYSKLTVDKSRWQQGNVFSCSVMHEALHNHYTQKSLSLSPGGGGSPSSYVLTQPPSVSVAPGQTARITCGGNNIGSKSVNWFQQKPGQAPVLVVYDDSGRPSGVPSRFSGSTSGNTATLTISRVEAGDEADYYCQVWDSSSDHVVFGGGTKLTVLGGGGSGGGGSGGGGSGGGGSQVQLVESGGGVVQPGRSLRLSCAASGFTLSYYGMHWVRQAPGKGLEWVAAISHDGSDKYYADSVKGRFTISRDNSKNRLYLQMNSLRAEDTAVYYCSNDQFDPWGQGTLVTVSSR
